Laboratory results from paper PMC5467231, “The signalling receptor MCAM coordinates apical-basal polarity and planar cell polarity during morphogenesis” (Nature Communications, 2017).

Target: T1, recombinant human MCAM/Fc chimera (Sino Biological 10115-H02H) (human, UniProt P43121 24-559)
T1 construct: melanoma cell adhesion molecule (MCAM), human, part fused to Fc; IgG1 Fc served as the control chimera; source: bought: Sino Biological Inc
T1 sequence (looked up): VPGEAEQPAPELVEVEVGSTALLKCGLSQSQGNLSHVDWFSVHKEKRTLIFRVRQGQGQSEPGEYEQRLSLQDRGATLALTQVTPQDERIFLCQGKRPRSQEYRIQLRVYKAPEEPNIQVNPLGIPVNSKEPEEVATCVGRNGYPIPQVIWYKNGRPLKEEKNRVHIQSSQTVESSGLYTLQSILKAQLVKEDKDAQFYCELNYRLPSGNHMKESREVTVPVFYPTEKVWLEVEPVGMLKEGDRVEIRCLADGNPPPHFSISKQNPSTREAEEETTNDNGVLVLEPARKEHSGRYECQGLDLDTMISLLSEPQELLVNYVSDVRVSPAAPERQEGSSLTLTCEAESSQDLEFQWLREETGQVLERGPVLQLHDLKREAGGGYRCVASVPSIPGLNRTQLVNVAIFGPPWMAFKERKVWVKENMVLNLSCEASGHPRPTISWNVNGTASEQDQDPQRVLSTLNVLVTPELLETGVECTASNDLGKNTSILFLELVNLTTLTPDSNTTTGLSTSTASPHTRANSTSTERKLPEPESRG
Test: SPR; Biacore T100, CM5 chip, room temperature, 1x PBS with 0.05% Tween 20; MCAM/Fc, FGFR1/Fc, FGFR2/Fc or IgG1 Fc immobilised by amine coupling, soluble FGF2, FGF4 or FGF8 flowed over; 1:1 binding model
Details: both partners purified

B1: recombinant FGF4 (Peprotech AF-100-31) (ligand, UniProt P08620 31-206, looked up)
chain: APTAPNGTLEAELERRWESLVALSLARLPVAAQPKEAAVQSGAGDYLLGIKRLRRLYCNVGIGFHLQALPDGRIGGAHADTRDSLLELSPVERGVVSIFGVASRFFVAMSSKGKLYGSPFFTDECTFKEILLPNNYNAYESYKYPGMFIALSKNGKTKKGNRVSPTMKVTHFLPRL
notes: fibroblast growth factor 4, recombinant, soluble; also called soluble FGF4; source: bought: Peprotech
**Q.** With B1 as the binder, how does the Kd read?
**A.** 0.97 nM
